Bounds are passed on as bounds.

Assay [1] deals with T1, human STEAP1 (Six Trans-membrane Epithelial Antigen of the Prostate 1) (human, UniProt Q9UHE8 1-339). In words: flow cytometry on C4-2B-Luc cells. The method, then: (§1) C4-2B-Luc cells were incubated with increasing concentrations of Ab-A1 XmAb²⁺¹, Ab-A1 Xmab, Ab-B1 Xmab, Ab-Mx1, Ab-Mx2 and Ab-Mx3 up to […], for 1 hour at 4° C. Cell-bound antibodies were detected by flow cytometry after incubation with an APC-conjugated anti-human IgG secondary antibody and mean fluorescence intensity (MFI) of the APC channel at increasing concentrations of respective antibodies tested.
T1 sequence (Q9UHE8 whole entry): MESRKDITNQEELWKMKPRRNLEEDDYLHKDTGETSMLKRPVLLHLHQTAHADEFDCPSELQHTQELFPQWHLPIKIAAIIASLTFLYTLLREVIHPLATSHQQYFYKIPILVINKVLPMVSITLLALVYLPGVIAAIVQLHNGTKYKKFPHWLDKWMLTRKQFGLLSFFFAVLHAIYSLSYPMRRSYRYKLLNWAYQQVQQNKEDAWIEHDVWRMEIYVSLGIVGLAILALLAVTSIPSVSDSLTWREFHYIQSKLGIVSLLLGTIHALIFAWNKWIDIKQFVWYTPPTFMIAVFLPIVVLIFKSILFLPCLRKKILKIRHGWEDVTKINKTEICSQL
A general note: Flow cytometry measures light scatter and fluorescence of single cells or particles in a stream.

Assay [2] concerns the target T1, human STEAP1 (Six Trans-membrane …). In words: cell-based or functional assay.
The target is the same in assay [3]. In words: cell-based or functional assay. The source holds these as a separate data set.
For assay [4] the target is unchanged. In words: flow cytometry on C4-2B luc cells, MFI (repeat experiment). The method, then:
The experiment was repeated with Ab-A in various formats (Ab-A (traditional, monospecific antibody, not humanized), Ab-A1 XmAb format, Ab-A1 Xmab²⁺¹ format, and Ab-A2(N67Q) Xmab²⁺¹ format (with N67Q modification)) and Ab-B XmAb format. C4-2B-Luc cells were incubated with increasing concentrations of anti-STEAP1 XmAb or XmAb²⁺¹ molecules up to […], for one hour at 4° C. […] Results are shown in FIGS. 12A-12C and FIG. 13 and Table 4 below.

Assay [5] has the same target. In words: flow cytometry on C4-2B-Luc cells, APC anti-human IgG, MFI. On the procedure:
as §1

Assay [6] addresses T2, recombinant human CD3ε-Fc (human, UniProt P07766 23-126).
T2 construct: also called human CD3E-Fc; not shown: Fc part
In words: SPR, CD3ε-Fc immobilized on CM5 chip; ^a data generated using BIAcore. On the procedure:
(§2) Recombinant human CD3E-Fc and cynomolgus CD3ε-Fc were immobilized on a CM5 chip surface using standard amine coupling procedure at ˜60 RU. Ab-A2(N67Q) XmAb²⁺¹ was injected concentrations of 100, 33.3, 11.1 and 3.7 nM. The association and dissociation rates of Ab-A2(N67Q) XmAb²⁺¹ interaction to the ligands were recorded for 120 sec and 300 sec, respectively, as set forth below in Table 8. The equilibrium dissociation constant (KD) values were derived as a ratio of the dissociation rate constant and the association rate constant (koff/kₒₙ).
(SPR reads the build-up and loss of mass on a sensor chip optically.)

Assay [7] addresses T3, recombinant cynomolgus CD3ε-Fc (cynomolgus, UniProt Q95LI5 22-117, limits assumed).
T3 construct: not shown: Fc part
T3 sequence (looked up): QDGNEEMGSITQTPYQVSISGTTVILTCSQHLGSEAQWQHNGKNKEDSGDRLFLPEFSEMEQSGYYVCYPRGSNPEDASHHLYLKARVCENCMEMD
The description is as above. The method, then: as §2

Assay [8] has as its target T1, human STEAP1 (Six Trans-membrane …). In words: cell-based or functional assay. This is another data set of the same source.
Assay [9] concerns the target T2, recombinant human CD3ε-Fc. In words: ^b data generated using Octet. For orientation: Biolayer interferometry detects binding as a change in optical thickness at a sensor tip.
Assay [10] concerns the target T3, recombinant cynomolgus CD3ε-Fc. In words: ^b data generated using Octet.
For assay [11], the target named is T1, human STEAP1 (Six Trans-membrane …). In words: cell-based or functional assay. This is another data set of the same source.
Assay [12] has the same target. In words: cell-based or functional assay. The source holds these as a separate data set.

T2 sequence (P07766 23-126 limits assumed): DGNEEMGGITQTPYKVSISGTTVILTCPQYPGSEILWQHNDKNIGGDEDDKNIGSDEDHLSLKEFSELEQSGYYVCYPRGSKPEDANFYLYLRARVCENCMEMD

B1: Ab-A1 XmAb^2+1 (humanized anti-STEAP1/anti-CD3 heterodimeric antibody) (bispecific antibody)
heavy 1: QVQLVQSGAEVKKPGASVKVSCKASGYTFSTYWIEWVRQAPGQRLEWMGEILPGSGNTDFNEKFQGRVTFTADTSSDTAYMELSSLRSEDTAVYYCTRWGYYGTRGYFNVWGQGTLVTVSSASTKGPSVFPLAPSSKSTSGGTAALGCLVKDYFPEPVTVSWNSGALTSGVHTFPAVLQSSGLYSLSSVVTVPSSSLGTQTYICNVNHKPSNTKVDKKVEPKSCGGGGSGGGGSEVQLVESGGGLVQPGGSLRLSCAASGFTFSTYAMNWVRQAPGKGLEWVGRIRSKYNNYATYYADSVKGRFTISRDDSKNTLYLQMNSLRAEDTAVYYCVRHGNFGDSYVSWFAYWGQGTLVTVSSGKPGSGKPGSGKPGSGKPGSQAVVTQEPSLTVSPGGTVTLTCGSSTGAVTTSNYANWVQQKPGKSPRGLIGGTNKRAPGVPARFSGSLLGGKAALTISGAQPEDEADYYCALWYSNHWVFGGGTKLTVLGGGGSGGGGSKTHTCPPCPAPPVAGPSVFLFPPKPKDTLMISRTPEVTCVVVDVKHEDPEVKFNWYVDGVEVHNAKTKPREEQYNSTYRVVSVLTVLHQDWLNGKEYKCKVSNKALPAPIEKTISKAKGQPREPQVYTLPPSREQMTKNQVKLTCLVKGFYPSDIAVEWESNGQPENNYKTTPPVLDSDGSFFLYSKLTVDKSRWQQGNVFSCSVMHEALHNHYTQKSLSLSPGK
heavy 2: QVQLVQSGAEVKKPGASVKVSCKASGYTFSTYWIEWVRQAPGQRLEWMGEILPGSGNTDFNEKFQGRVTFTADTSSDTAYMELSSLRSEDTAVYYCTRWGYYGTRGYFNVWGQGTLVTVSSASTKGPSVFPLAPSSKSTSGGTAALGCLVKDYFPEPVTVSWNSGALTSGVHTFPAVLQSSGLYSLSSVVTVPSSSLGTQTYICNVNHKPSDTKVDKKVEPKSCDKTHTCPPCPAPPVAGPSVFLFPPKPKDTLMISRTPEVTCVVVDVKHEDPEVKFNWYVDGVEVHNAKTKPREEEYNSTYRVVSVLTVLHQDWLNGKEYKCKVSNKALPAPIEKTISKAKGQPREPQVYTLPPSREEMTKNQVSLTCDVSGFYPSDIAVEWESDGQPENNYKTTPPVLDSDGSFFLYSKLTVDKSRWEQGDVFSCSVMHEALHNHYTQKSLSLSPGK
light: EIVLTQSPATLSLSPGERATLSCRASSSVSYMHWFQQKPGQAPRLLIYSTSNLASGIPARFSGSGSGTDYTLTISSLEPEDFAVYYCQQRRSFPYTFGQGTKLEIKRTVAAPSVFIFPPSDEQLKSGTASVVCLLNNFYPREAKVQWKVDNALQSGNSQESVTEQDSKDSTYSLSSTLTLSKADYEKHKVYACEVTHQGLSSPVTKSFNRGEC
notes: XmAb^2+1 format: first monomer VH-CH1-(anti-CD3 scFv)-Fc, second monomer VH-CH1-Fc, common light chain; two STEAP1 Fabs and one CD3 scFv; monomers 19 or 20 / 18 or 199 / light 17; scFv 44; also called XmAb^2+1 Ab-A1; copies: 1 + 1 + 2
B1: the “fold lower binding EC50 than Ab-A1 Xmab” value in assay [1] is 65 fold. Also, the “TDCC EC50” value in [2] is 6 pM. In addition, the “TDCC EC50, C4-2B luc cells” value in assay [3] turned out to be 6.3 pM. Also, the EC50 in [4] and in assay [5] was 2200 pM throughout.

B2: Ab-A2(N67Q) XmAb^2+1 (variant of Ab-A1 XmAb^2+1 having a N67Q modification) (bispecific antibody)
heavy 1: QVQLVQSGAEVKKPGASVKVSCKASGYTFSTYWIEWVRQAPGQRLEWMGEILPGSGQTDFNEKFQGRVTFTADTSSDTAYMELSSLRSEDTAVYYCTRWGYYGTRGYFNVWGQGTLVTVSSASTKGPSVFPLAPSSKSTSGGTAALGCLVKDYFPEPVTVSWNSGALTSGVHTFPAVLQSSGLYSLSSVVTVPSSSLGTQTYICNVNHKPSNTKVDKKVEPKSCGGGGSGGGGSEVQLVESGGGLVQPGGSLRLSCAASGFTFSTYAMNWVRQAPGKGLEWVGRIRSKYNNYATYYADSVKGRFTISRDDSKNTLYLQMNSLRAEDTAVYYCVRHGNFGDSYVSWFAYWGQGTLVTVSSGKPGSGKPGSGKPGSGKPGSQAVVTQEPSLTVSPGGTVTLTCGSSTGAVTTSNYANWVQQKPGKSPRGLIGGTNKRAPGVPARFSGSLLGGKAALTISGAQPEDEADYYCALWYSNHWVFGGGTKLTVLGGGGSGGGGSKTHTCPPCPAPPVAGPSVFLFPPKPKDTLMISRTPEVTCVVVDVKHEDPEVKFNWYVDGVEVHNAKTKPCEEQYGSTYRCVSVLTVLHQDWLNGKEYKCKVSNKALPAPIEKTISKAKGQPREPQVYTLPPSREQMTKNQVKLTCLVKGFYPSDIAVEWESNGQPENNYKTTPPVLDSDGSFFLYSKLTVDKSRWQQGNVFSCSVMHEALHNHYTQKSLSLSPGK
heavy 2: QVQLVQSGAEVKKPGASVKVSCKASGYTFSTYWIEWVRQAPGQRLEWMGEILPGSGQTDFNEKFQGRVTFTADTSSDTAYMELSSLRSEDTAVYYCTRWGYYGTRGYFNVWGQGTLVTVSSASTKGPSVFPLAPSSKSTSGGTAALGCLVKDYFPEPVTVSWNSGALTSGVHTFPAVLQSSGLYSLSSVVTVPSSSLGTQTYICNVNHKPSDTKVDKKVEPKSCDKTHTCPPCPAPPVAGPSVFLFPPKPKDTLMISRTPEVTCVVVDVKHEDPEVKFNWYVDGVEVHNAKTKPCEEEYGSTYRCVSVLTVLHQDWLNGKEYKCKVSNKALPAPIEKTISKAKGQPREPQVYTLPPSREEMTKNQVSLTCDVSGFYPSDIAVEWESDGQPENNYKTTPPVLDSDGSFFLYSKLTVDKSRWEQGDVFSCSVMHEALHNHYTQKSLSLSPGK
light: EIVLTQSPATLSLSPGERATLSCRASSSVSYMHWFQQKPGQAPRLLIYSTSNLASGIPARFSGSGSGTDYTLTISSLEPEDFAVYYCQQRRSFPYTFGQGTKLEIKRTVAAPSVFIFPPSDEQLKSGTASVVCLLNNFYPREAKVQWKVDNALQSGNSQESVTEQDSKDSTYSLSSTLTLSKADYEKHKVYACEVTHQGLSSPVTKSFNRGEC
notes: XmAb^2+1 format (two STEAP1 Fabs, one anti-CD3 scFv); monomers 19 or 20 / 18 or 199 / light 17; scFv 44; also called Ab-A2 XmAb^2+1; copies: 1 + 1 + 2
For B2, the Kd in [6] turned out to be 16300 pM. In addition, in assay [7], the Kd came out at 15100 pM. For the same molecule, in assay [8], the “TDCC EC50, A673 cells” value worked out at 122 pM; the “TDCC EC50, EBC1 cells” value was 162 pM; the “TDCC EC50, OE33 cells” value was 145 pM. The “TDCC EC50, C4-2B luc cells” value in [3] was 5.4 pM. Moreover, the EC50 in [4] amounted to 1200 pM. In assay [9], the Kd was found to be 27600 pM. In [10], the Kd turned out to be 25800 pM. In addition, in assay [11], the “TDCC EC50, 22RV-1 cells” value was found to be 257 pM; the “TDCC EC50, C4-2B cells” value stood at 6.8 pM; the “TDCC EC50, HBSMC cells” value came out at 1520 pM; the “TDCC EC50, HCT116 cells” value turned out to be 336 pM. In addition, in assay [11], the “TDCC EC50, HUCCT1 cells” value was above 10000 pM; the “TDCC EC50, IM-95 cells” value worked out at 345 pM; the “TDCC EC50, LOX-IMVI cells” value is 36.6 pM; the “TDCC EC50, NCIH1869 cells” value is above 10000 pM. Further, in assay [11], the “TDCC EC50, PC3 cells” value was above 10000 pM; the “TDCC EC50, SK-N-MC cells” value was found to be 10.4 pM; the “TDCC EC50, SNU5 cells” value was found to be 6.2 pM; the “TDCC EC50, TYKNU cells” value came to 1720 pM. For the same molecule, the “TDCC EC50, VCaP cells” value in assay [11] was 722 pM. In assay [12], the “TDCC EC50, 293T cells stably transfected with human STEAP1” value worked out at 0.1 pM.

As a reminder, the EC50 is the concentration giving half of the maximal effect. A low value points to higher potency in that assay. For orientation: Kd means the free concentration of one partner at which half of the binding sites on the other are occupied at equilibrium, for simple one-to-one binding.
